The series is described as follows: self-splicing fitness, log relative to wild type (ln ratio); higher = more splicing; Tetrahymena group I intron in knt gene, E. coli kanamycin selection, DiMSum; sequences stand for … in CUCUCU…GGAGGGAAAAGUUAUCAGGCAUGCACCUGGUAGCUAGUCUUUAAACCAAUAGAUUGCAUCGGUUUAAAAGGCAAGACCGUCAAAUUGCGGGAAAGGGGUCAACAGCCGUUCAGUACCAAGUCUCAGGGGAAACUUUGAGAUGGCCUUGCAAAGGGUAUGGUAAUAAGCUGACGGACAUGGUCCUAACCACGCAGCCAAGUCCUAAGUCAACAGAUCUUCUGUUGAUAUGGAUGCAGUUCACAGACUAAAUGUCGGUCGGGGAAGAUGUAUUCUUCUCAUAAGAUAUAGUCGGACCUCUCCUUAAUGGGAGCUAGCGGAUGAAGUGAUGCAACACUGGAGCCGCUGGGAACUAAUUUGUAUGCGAAAGUAUAUUGAUUAGUUUUGGAGUACUCGUGGUCG
A digest of the protocol: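 The eight P1ex-region nucleotides of an intron in the knt kanamycin-resistance gene on pET-22b(+) were all randomised and the library put into E. coli BL21(DE3). Six replicate transformations were grown overnight at 37°C or 30°C on LB agar with or without 25 μg/mL kanamycin, together with 100 μg/mL carbenicillin, 50 μM IPTG and 0.2% rhamnose. Colonies were pooled and amplicon-sequenced on an Illumina HiSeq 2500. Fitness from DiMSum is the error-weighted combination of wild-type-normalised replicate fold changes, kanamycin over none.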

The text below walks through data of the supplement of paper PMC7877785.

± gives the uncertainty stated by the source.

As for UGUAAGCAAUAUUACGUGAA, the “self-splicing fitness (ln)” value was -1.8 ± 0.16 (30 °C) and 0.0061 ± 0.14 (37 °C).

Turning to UGUAAGCAAUAUUACGUGCU, the “self-splicing fitness (ln)” value is, setting by setting: (30 °C) -1.48 ± 0.13; (37 °C) -0.148 ± 0.16.

As for UGUAAGCAAUAUUACGUUAU, the “self-splicing fitness (ln)” value by setting is: (30 °C) -3.54 ± 0.22; (37 °C) -2.73 ± 0.26.

Turning to UGUCAGCAAUAUUACGACGG, the “self-splicing fitness (ln)” value was -1.06 ± 0.076 (30 °C) and -0.98 ± 0.092 (37 °C).

For the sequence UGUCAGCAAUAUUACGAGAA, the “self-splicing fitness (ln)” value (30 °C) is -1.43 ± 0.27 and the “self-splicing fitness (ln)” value (37 °C) is -1.48 ± 0.22.

As to UGUCAGCAAUAUUACGAUCC, the “self-splicing fitness (ln)” value reads like this: (30 °C) -1.48 ± 0.086; (37 °C) -0.717 ± 0.089.

With UGUCAGCAAUAUUACGAUUU, the “self-splicing fitness (ln)” value (30 °C) is -0.0817 ± 0.061 and the “self-splicing fitness (ln)” value (37 °C) came to 0.461 ± 0.082.

With UGUCAGCAAUAUUACGCUAG, the “self-splicing fitness (ln)” value runs as follows: (30 °C) -0.41 ± 0.061; (37 °C) -0.214 ± 0.077.

Regarding UGUCAGCAAUAUUACGCUCA, the “self-splicing fitness (ln)” value is 0.0629 ± 0.11 (30 °C) and -0.236 ± 0.11 (37 °C).

Regarding UGUCAGCAAUAUUACGCUCG, the “self-splicing fitness (ln)” value was -0.552 ± 0.16 (30 °C) and 0.987 ± 0.32 (37 °C).

Regarding UGUCAGCAAUAUUACGGCCA, the “self-splicing fitness (ln)” value by setting is: (30 °C) -0.139 ± 0.11; (37 °C) -0.162 ± 0.12.

Take UGUCAGCAAUAUUACGGGGA: the “self-splicing fitness (ln)” value (30 °C) was -1.32 ± 0.061 and the “self-splicing fitness (ln)” value (37 °C) was -0.476 ± 0.07.

For the sequence UGUCAGCAAUAUUACGUCAC, the “self-splicing fitness (ln)” value was -3.9 ± 0.39 (30 °C) and -3.29 ± 0.37 (37 °C).

For the sequence UGUCAGCAAUAUUACGUCAU, the “self-splicing fitness (ln)” value (30 °C) was -1.79 ± 0.1 and the “self-splicing fitness (ln)” value (37 °C) is -1.38 ± 0.14.

For the sequence UGUCAGCAAUAUUACGUCGU, the “self-splicing fitness (ln)” value (30 °C) is -1.49 ± 0.1 and the “self-splicing fitness (ln)” value (37 °C) is -0.759 ± 0.11.

UGUCAGCAAUAUUACGUGGC: the “self-splicing fitness (ln)” value is -4.53 ± 0.31 (30 °C) and -3.13 ± 0.31 (37 °C).

For UGUCAGCAAUAUUACGUUAA, the “self-splicing fitness (ln)” value is -0.609 ± 0.1 (30 °C) and -0.411 ± 0.11 (37 °C).

Take UGUCAGCAAUAUUACGUUAC: the “self-splicing fitness (ln)” value is, setting by setting: (30 °C) -3.4 ± 0.27; (37 °C) -2.77 ± 0.43.

Regarding UGUGAGCAAUAUUACGAAAG, the “self-splicing fitness (ln)” value was -2.98 ± 0.18 (30 °C) and -2.69 ± 0.27 (37 °C).

Turning to UGUGAGCAAUAUUACGAGCG, the “self-splicing fitness (ln)” value by setting is: (30 °C) -1.29 ± 0.12; (37 °C) -0.066 ± 0.12.

On to UGUGAGCAAUAUUACGAUAA, for which the “self-splicing fitness (ln)” value by setting is: (30 °C) -2.33 ± 0.16; (37 °C) -1.92 ± 0.21.

For UGUGAGCAAUAUUACGAUAG, the “self-splicing fitness (ln)” value is, setting by setting: (30 °C) -2.74 ± 0.24; (37 °C) -0.644 ± 0.2.

As to UGUGAGCAAUAUUACGAUGU, the “self-splicing fitness (ln)” value reads like this: (30 °C) -3.05 ± 0.18; (37 °C) -2.08 ± 0.24.

As for UGUGAGCAAUAUUACGCAUA, the “self-splicing fitness (ln)” value (30 °C) is -1.6 ± 0.23 and the “self-splicing fitness (ln)” value (37 °C) is -2.46 ± 0.33.

As for UGUGAGCAAUAUUACGGCUC, the “self-splicing fitness (ln)” value reads like this: (30 °C) -3.06 ± 0.44; (37 °C) -3.18 ± 0.47.

Turning to UGUGAGCAAUAUUACGGUAG, the “self-splicing fitness (ln)” value by setting is: (30 °C) -2.45 ± 0.18; (37 °C) -1.79 ± 0.21.

For UGUGAGCAAUAUUACGGUGU, the “self-splicing fitness (ln)” value reads like this: (30 °C) -3 ± 0.31; (37 °C) -2.84 ± 0.24.

As for UGUGAGCAAUAUUACGUACG, the “self-splicing fitness (ln)” value reads like this: (30 °C) -0.814 ± 0.1; (37 °C) -0.164 ± 0.12.

Consider UGUGAGCAAUAUUACGUCGC, for which the “self-splicing fitness (ln)” value (30 °C) was -1.15 ± 0.21.

For UGUGAGCAAUAUUACGUUGU, the “self-splicing fitness (ln)” value reads like this: (30 °C) -3.15 ± 0.25; (37 °C) -3.13 ± 0.47.

UGUUAGCAAUAUUACGACUU: the “self-splicing fitness (ln)” value is, setting by setting: (30 °C) -0.357 ± 0.11; (37 °C) 0.12 ± 0.12.

Take UGUUAGCAAUAUUACGAGUC: under “30 °C”, the “self-splicing fitness (ln)” value is -4.22 ± 0.42.

Consider UGUUAGCAAUAUUACGAGUU, for which the “self-splicing fitness (ln)” value was -3.66 ± 0.28 (30 °C) and -1.85 ± 0.19 (37 °C).

UGUUAGCAAUAUUACGAUAG: the “self-splicing fitness (ln)” value (30 °C) was -2.07 ± 0.26 and the “self-splicing fitness (ln)” value (37 °C) turned out to be 0.173 ± 0.17.

On to UGUUAGCAAUAUUACGAUCG, for which the “self-splicing fitness (ln)” value was -0.427 ± 0.26 (30 °C) and -0.0339 ± 0.28 (37 °C).

With UGUUAGCAAUAUUACGAUGU, the “self-splicing fitness (ln)” value (30 °C) was -1.78 ± 0.12 and the “self-splicing fitness (ln)” value (37 °C) is -0.548 ± 0.13.

Regarding UGUUAGCAAUAUUACGAUUC, the “self-splicing fitness (ln)” value is -2.39 ± 0.18 (30 °C) and -0.83 ± 0.18 (37 °C).

As for UGUUAGCAAUAUUACGCACU, the “self-splicing fitness (ln)” value by setting is: (30 °C) -0.724 ± 0.1; (37 °C) -0.553 ± 0.12.
